Here are results for one molecule from US20240158474A1 (SINO BIOLOGICAL, published 2024).

One experiment addresses T1, HPV58 VLP protein (human papillomavirus type 58, UniProt P26535 27-499).
T1 construct: Complete VLP protein; no limits of the construct printed, whole entry named; also called P58SHELL
T1 sequence: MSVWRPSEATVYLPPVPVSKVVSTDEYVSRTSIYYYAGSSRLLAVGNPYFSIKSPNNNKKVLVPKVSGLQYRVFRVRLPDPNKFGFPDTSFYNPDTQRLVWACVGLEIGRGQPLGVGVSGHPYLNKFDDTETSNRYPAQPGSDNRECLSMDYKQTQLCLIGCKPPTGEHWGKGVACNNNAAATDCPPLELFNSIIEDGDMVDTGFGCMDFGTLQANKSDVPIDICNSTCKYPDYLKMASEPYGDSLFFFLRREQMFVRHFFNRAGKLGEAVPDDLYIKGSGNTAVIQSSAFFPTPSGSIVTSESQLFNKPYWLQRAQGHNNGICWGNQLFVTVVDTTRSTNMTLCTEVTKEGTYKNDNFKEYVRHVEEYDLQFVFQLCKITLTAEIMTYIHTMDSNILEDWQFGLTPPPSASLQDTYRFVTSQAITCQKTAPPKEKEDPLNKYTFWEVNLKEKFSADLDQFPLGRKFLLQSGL
Description: indirect ELISA on coated VLP.

The next experiment has as its target T2, HPV52 VLP protein (human papillomavirus type 52, UniProt Q05138 27-504).
T2 construct: Complete VLP protein; no limits of the construct printed, whole entry named; also called P52SHELL
T2 sequence: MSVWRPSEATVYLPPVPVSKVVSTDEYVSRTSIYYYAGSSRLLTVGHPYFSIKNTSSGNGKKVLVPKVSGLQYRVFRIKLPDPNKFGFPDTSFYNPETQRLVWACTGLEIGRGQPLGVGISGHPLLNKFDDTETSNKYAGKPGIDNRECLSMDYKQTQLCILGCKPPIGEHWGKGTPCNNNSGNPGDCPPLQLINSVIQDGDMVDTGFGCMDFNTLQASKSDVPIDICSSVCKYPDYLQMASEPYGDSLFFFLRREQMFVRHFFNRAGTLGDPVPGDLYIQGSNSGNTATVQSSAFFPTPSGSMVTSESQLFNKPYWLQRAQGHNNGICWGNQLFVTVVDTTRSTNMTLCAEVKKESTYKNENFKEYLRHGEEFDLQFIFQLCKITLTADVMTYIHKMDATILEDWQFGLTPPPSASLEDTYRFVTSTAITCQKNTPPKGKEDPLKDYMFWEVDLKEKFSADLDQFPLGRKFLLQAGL
Description: indirect ELISA on coated VLP.

In the next experiment the target is T3, HPV31 VLP protein (human papillomavirus type 31; human …, UniProt P17388 1-475; P06416 474-499).
T3 construct: range 1-475;range 474-499; Complete VLP protein used as coating protein; also called P31SHELL(1-475Y)+HPV33L1(474K-499K)
T3 sequence: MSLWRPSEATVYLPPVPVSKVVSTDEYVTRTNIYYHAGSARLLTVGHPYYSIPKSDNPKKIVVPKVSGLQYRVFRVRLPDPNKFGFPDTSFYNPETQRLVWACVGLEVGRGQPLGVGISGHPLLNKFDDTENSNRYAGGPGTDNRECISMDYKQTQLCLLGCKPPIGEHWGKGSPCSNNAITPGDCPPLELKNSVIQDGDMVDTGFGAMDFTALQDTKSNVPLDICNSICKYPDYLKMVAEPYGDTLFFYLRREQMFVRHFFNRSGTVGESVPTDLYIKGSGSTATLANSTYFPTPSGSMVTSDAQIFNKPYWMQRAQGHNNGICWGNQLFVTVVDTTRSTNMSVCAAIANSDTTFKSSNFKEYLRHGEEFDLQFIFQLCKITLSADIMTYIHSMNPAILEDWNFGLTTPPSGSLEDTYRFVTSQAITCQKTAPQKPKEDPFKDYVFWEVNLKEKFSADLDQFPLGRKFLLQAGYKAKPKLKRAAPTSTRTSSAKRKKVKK
Description: double-antibody sandwich ELISA on the mixture of 13 HPV VLPs.

A further experiment addresses T4, HPV35 VLP protein (human papillomavirus type 35; human …, UniProt P27232 1-472; P06416 474-499).
T4 construct: range 1-472;range 474-499; Complete VLP protein used as coating protein; also called HPV35L1(1-472L)+HPV33L1(474K-499K)
T4 sequence: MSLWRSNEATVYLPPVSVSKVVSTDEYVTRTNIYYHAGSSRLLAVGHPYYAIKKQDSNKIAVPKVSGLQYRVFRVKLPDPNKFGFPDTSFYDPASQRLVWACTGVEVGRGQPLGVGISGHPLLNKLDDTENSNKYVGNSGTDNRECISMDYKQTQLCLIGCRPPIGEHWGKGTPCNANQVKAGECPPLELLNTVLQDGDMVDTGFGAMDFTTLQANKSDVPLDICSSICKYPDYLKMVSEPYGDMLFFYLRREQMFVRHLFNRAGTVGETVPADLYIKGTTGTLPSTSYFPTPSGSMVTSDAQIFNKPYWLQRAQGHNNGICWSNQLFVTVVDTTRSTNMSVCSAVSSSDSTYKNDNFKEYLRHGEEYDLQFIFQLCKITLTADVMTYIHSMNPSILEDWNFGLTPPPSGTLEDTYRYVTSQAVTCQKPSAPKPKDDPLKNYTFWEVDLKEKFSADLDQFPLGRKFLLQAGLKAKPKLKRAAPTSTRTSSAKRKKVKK
Described as above.

The target of the next experiment is T5, HPV45 VLP protein (human papillomavirus type 45; human …, UniProt P36741 1-478; P06416 474-499).
T5 construct: range 1-478;range 474-499; Complete VLP protein used as coating protein; also called HPV45L1(1-478L)+HPV33L1(474K-499K)
T5 sequence: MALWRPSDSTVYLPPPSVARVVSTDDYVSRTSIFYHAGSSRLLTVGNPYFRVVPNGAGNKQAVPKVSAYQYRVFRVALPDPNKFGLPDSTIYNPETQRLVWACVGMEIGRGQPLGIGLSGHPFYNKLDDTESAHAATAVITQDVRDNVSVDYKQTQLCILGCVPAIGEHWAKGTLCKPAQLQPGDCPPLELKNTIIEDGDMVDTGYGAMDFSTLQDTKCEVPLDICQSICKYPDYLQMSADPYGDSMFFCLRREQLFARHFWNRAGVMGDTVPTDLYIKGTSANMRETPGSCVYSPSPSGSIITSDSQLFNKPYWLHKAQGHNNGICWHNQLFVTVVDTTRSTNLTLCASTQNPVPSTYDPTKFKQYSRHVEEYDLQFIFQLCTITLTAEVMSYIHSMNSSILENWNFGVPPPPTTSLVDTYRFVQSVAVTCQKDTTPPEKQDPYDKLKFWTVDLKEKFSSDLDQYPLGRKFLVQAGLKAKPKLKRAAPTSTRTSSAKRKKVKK
Described as above.

B1: monoclonal antibody HPV6-R003 (antibody, V domains shown)
VH: QQQLEESGGGLVKPGGTLTLTCKASGIDLSNYYMCWVRQAPGKGLEWIGCIYTGSGRTYYASWAKGRFTISKASSTTVTLQMTSLTAADTATYFCARDYLGWRASNIWGPGTLVTVSS
VL: ELVMTQTPSSVSAAVGGTVTINCQASQSVYSNNLVWYQQKPGQPPKLLIYGASTLASGVPSRFKGSGSGTQFTLTISDVVCDDAATYYCGGYVSDSTDGTAFGGGTEVVVKG
notes: here built from variable plus constant region so that the signal peptides are left out; In the sandwich ELISA the same antibody is used as coating antibody and, labelled with horseradish peroxidase, as detection antibody; also called anti-HPV6 L1 protein antibody
Turning to B1, the binding result in the experiment with HPV58 VLP protein is recorded as “no binding (tested: antibody 10 ng/mL; coating 2 µg/mL)”; with HPV52 VLP protein it was “no binding (tested: antibody 10 ng/mL; coating 2 µg/mL)”; with HPV31 VLP protein, “no binding (tested: mixture 50 ng/mL, each subtype 1/13)”; with HPV35 VLP protein, “no binding (tested: mixture 50 ng/mL, each subtype 1/13)”; with HPV45 VLP protein, “no binding (tested: mixture 50 ng/mL, each subtype 1/13)”.
